This is an account of results in publication PMC12338045 (Science (New York, N.Y.), 2025).

One assay concerns the target Mcm3 (yeast) (budding yeast, UniProt P24279 1-971). Description: cryo-EM structure.
For another assay, the target named is T1, Mcm4 (yeast) (budding yeast, UniProt P30665 1-933).
T1 sequence: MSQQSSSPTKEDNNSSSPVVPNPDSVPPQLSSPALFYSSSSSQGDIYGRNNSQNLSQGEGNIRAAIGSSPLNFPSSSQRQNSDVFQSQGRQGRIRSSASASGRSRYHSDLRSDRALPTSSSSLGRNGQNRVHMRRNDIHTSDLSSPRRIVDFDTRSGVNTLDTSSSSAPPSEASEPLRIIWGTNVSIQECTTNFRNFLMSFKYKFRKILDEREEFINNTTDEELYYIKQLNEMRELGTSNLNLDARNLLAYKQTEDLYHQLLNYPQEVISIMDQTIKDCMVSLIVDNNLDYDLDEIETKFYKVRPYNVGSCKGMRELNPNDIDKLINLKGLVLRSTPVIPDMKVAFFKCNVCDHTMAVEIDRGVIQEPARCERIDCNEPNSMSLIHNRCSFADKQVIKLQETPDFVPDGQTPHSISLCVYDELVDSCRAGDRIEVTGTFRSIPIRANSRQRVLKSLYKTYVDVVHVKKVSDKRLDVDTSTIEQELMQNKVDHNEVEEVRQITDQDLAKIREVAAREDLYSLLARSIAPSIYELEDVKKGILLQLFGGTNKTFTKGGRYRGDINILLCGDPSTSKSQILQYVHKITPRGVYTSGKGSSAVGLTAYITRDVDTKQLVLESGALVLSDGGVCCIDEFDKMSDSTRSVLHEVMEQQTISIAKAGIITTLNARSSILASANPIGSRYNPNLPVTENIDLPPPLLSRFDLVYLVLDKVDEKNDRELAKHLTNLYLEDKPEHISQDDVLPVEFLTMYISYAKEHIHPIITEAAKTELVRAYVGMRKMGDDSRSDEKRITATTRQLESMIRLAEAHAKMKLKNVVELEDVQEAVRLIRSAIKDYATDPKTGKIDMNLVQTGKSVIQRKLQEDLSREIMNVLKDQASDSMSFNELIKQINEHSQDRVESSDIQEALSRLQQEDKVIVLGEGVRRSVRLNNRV
The experiment in a line: cryo-EM structure.

Sequence of Mcm3 (yeast) (P24279 whole entry): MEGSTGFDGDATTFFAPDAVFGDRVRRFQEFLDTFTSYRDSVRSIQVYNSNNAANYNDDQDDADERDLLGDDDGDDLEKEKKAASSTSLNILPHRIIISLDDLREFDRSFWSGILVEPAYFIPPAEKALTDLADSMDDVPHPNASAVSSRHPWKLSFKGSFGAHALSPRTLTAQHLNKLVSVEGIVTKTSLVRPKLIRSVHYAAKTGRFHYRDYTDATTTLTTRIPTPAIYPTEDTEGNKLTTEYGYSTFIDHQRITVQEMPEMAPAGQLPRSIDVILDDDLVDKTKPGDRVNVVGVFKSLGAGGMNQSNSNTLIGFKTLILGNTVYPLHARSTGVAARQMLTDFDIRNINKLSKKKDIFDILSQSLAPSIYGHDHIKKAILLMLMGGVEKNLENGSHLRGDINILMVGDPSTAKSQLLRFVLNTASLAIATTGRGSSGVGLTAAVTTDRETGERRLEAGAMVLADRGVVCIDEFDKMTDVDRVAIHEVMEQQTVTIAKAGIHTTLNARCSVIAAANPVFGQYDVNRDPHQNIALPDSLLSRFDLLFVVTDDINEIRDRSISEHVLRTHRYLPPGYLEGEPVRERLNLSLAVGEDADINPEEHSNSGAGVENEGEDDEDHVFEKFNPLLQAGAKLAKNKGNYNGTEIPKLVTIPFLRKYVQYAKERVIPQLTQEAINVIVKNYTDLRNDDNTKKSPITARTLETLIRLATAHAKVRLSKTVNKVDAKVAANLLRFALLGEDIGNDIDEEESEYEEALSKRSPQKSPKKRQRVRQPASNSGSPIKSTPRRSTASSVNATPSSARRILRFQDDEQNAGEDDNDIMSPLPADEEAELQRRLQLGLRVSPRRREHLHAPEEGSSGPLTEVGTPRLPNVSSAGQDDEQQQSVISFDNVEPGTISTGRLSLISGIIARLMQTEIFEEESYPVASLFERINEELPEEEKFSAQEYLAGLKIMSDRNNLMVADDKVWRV

B1: Mcm7 (yeast) (natural protein, budding yeast)
chain: MSAALPSIQLPVDYNNLFNEITDFLVTFKQDTLSSDATRNENEDENLDAENIEQHLLEKGPKYMAMLQKVANRELNSVIIDLDDILQYQNEKFLQGTQADDLVSAIQQNANHFTELFCRAIDNNMPLPTKEIDYKDDVLDVILNQRRLRNERMLSDRTNEIRSENLMDTTMDPPSSMNDALREVVEDETELFPPNLTRRYFLYFKPLSQNCARRYRKKAISSKPLSVRQIKGDFLGQLITVRGIITRVSDVKPAVEVIAYTCDQCGYEVFQEVNSRTFTPLSECTSEECSQNQTKGQLFMSTRASKFSAFQECKIQELSQQVPVGHIPRSLNIHVNGTLVRSLSPGDIVDVTGIFLPAPYTGFKALKAGLLTETYLEAQFVRQHKKKFASFSLTSDVEERVMELITSGDVYNRLAKSIAPEIYGNLDVKKALLLLLVGGVDKRVGDGMKIRGDINVCLMGDPGVAKSQLLKAICKISPRGVYTTGKGSSGVGLTAAVMKDPVTDEMILEGGALVLADNGICCIDEFDKMDESDRTAIHEVMEQQTISISKAGINTTLNARTSILAAANPLYGRYNPRLSPLDNINLPAALLSRFDILFLMLDIPSRDDDEKLAEHVTYVHMHNKQPDLDFTPVEPSKMREYIAYAKTKRPVMSEAVNDYVVQAYIRLRQDSKREMDSKFSFGQATPRTLLGIIRLSQALAKLRLADMVDIDDVEEALRLVRVSKESLYQETNKSKEDESPTTKIFTIIKKMLQETGKNTLSYENIVKTVRLRGFTMLQLSNCIQEYSYLNVWHLINEGNTLKFVDDGTMDTDQEDSLVSTPKLAPQTTASANVSAQDSDIDLQDA
Turning to B1, the binding result with Mcm3 (yeast) and in the assay with Mcm4 (yeast) was “binds” throughout.
